Reference: US20200368361A1 (Regeneron, published 2020)
Substitutions are numbered along the chain they refer to. Names may count otherwise.

B1: H2aM25695N (antibody, mouse IgG2a, V domains shown)
VH: QVQLQESGPGLVKPSETLSLTCTVTGGSISRNYWSWIRQPPGKGLEWIGYIYYSGSINYNPSLKSRVTISVDMSKNQFSLKLNSVTAADTAVYYCARDRWNWKYGMDVWGQGTTVIVSS
VL: EIVLTQSPGTLSLSPGERATLSCRASQTVRNSYLAWYHQKPGQAPRLLIYGASSRATGIPDRFSGSGSGTDFTLTISRLEPEDFAVYYCQQYGSSYWTFGQGTKMEIKR
notes: mouse IgG2a Fc
B2: H1H27729P-N297Q (antibody, human IgG1, V domains shown)
VH: QVQLVESGGGLVKPGGSLRLSCAASGFIFSDYYMSWIRQAPGKGLEWVSYISSSGTTIYGDSVKGRFTMSRDNAKNSLYLQMNSLRAEDTAVYYCARNYALFDYWGQGTLVTVSS
VL: DIQMTQSPSSLSASVGDRVTITCQASQDISKYLNWYQQKPGKAPKLLIYYTSNLETGVPSRFSGSGSGTDFTFTISSLQPEDIATYYCHQSDYLPFTFGPGTKVDIKR
notes: human IgG1 Fc with N297Q
B3: H1H27731P-N297Q (antibody, V domains shown)
VH: QLQLQESGPGLVKPSETLSLTCTVSGGSISRISYYWGWIRQPPGKGLEWIGSIYDSGSTYYNPSLKSRVTISIDTSKNQFSLKLSSVTAADTAVYYCVRYSSSSAFAFDYWGQGTLVTVSS
VL: DIQMTQSPSSVSASVGDRVTITCRASQGISSWLAWYQQKPGKAPKLLIYAASSLQSGVPSRFSGSGSGTDFTLTISSLQPEDFATYYCQQANSFPFTFGPGTKVDIKR
notes: human IgG1 Fc with N297Q
B4: H1H27734P-N297Q (antibody, human IgG1, V domains shown)
VH: EVQLVESRGGLVQPGGSLRLSCAASGFTFSSYAMSWVRQAPGKGLEWVSAISGSGGSTFYADSVKGRFTISRDNSKNTVYLQMNSLRAEDTAVYYCAKALVLRFLEWLGDYWGQGTLVTVSS
VL: DIQMTQSPSTLSASVGDRVTITCRASQSISSWLAWFQQKPGKAPKLLIYKASSLESGVPSRFSGSGSGTEFTLTISSLQPDDFATYYCQQYKSYWTFGQGTKVEIKR
notes: human IgG1 Fc with N297Q
B5: H1H27739P-N297Q (antibody, human IgG1, V domains shown)
VH: EVQLVESGGGLVQPGGSLRLSCTASGFTFSSYAMSWVRQAPGKGLEWVSAISGTGSSTYFTDSVKGRFAISRDNSKNTLYLQMNSLRAEDTAVYYCAKDGEWLSTVTLFDYWGQGTLVTVSS
VL: EIVMTQSPATLSVSPGERATLSCRASQSVSSNLAWYQQKPGQAPRLLIYGASTRATGIPARFSGSGSGTDFTLTISSLQSEDFALYYCQQYFIWPPHPTFGPGTKVDIKR
notes: human IgG1 Fc with N297Q
B6: H1H27747P-N297Q (antibody, human IgG1, V domains shown)
VH: QVQLVESGGAVVQPGRSLRLSCAASGFTFSYYGMHWVRQAPGKGLEWVAVISYDGSKKYYADSVKGRFTISRDNSKNTLYLQMNSLRAEDTAVYYCAKDLTVDFYYGMDVWGQGTTVTVSS
VL: B3 VL with A51T, V58A, Y87F, F96Y, P100Q, V104L, D105E
notes: human IgG1 Fc with N297Q
B7: H1H27751P-N297Q (antibody, human IgG1, V domains shown)
VH: EVQLVESGGGLVQPGGSLRLSCAASGFTFSNYAMHWVRQAPGKGLEYVSAISSNGGSTYYADSVKGRITISRDNSKNTLYLQMGSLRAEDMAVYYCARGRPYYYYFGMDVWGQGTTVTVSS
VL: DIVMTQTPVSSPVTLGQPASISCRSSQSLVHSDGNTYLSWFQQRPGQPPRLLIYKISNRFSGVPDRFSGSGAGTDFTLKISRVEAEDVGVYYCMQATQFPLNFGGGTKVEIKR
notes: human IgG1 Fc with N297Q
B8: H1H27754P-N297Q (antibody, human IgG1, V domains shown)
VH: EVQLVESGGGLVQPGGSLRLSCAASGFTFRTYAMTWVRQAPGKGLDWVSAITGDGGNTYYADSVKGRFTISRDNSKNTLYLQMNSLRAEDTAIYYCAKDQRFSFALYYFDYWGQGTLVTVSS
VL: B3 VL with K42N, S52F, S93N, F96W, P100Q, D105E
notes: human IgG1 Fc with N297Q
B9: H1H27759P2-N297Q (antibody, human IgG1, V domains shown)
VH: EVQLVESGGGFVQPGGSLRLSCAASGFTFSSYAMSWVRQAPGKGLEWVSAISGTGSNTYYADSVKGRFTISRDNSKNTLYLQMNSLRAEDTAVYYCAKDRVTTVTYYFDYWGQGTLVTVSS
VL: not shown
notes: human IgG1 Fc with N297Q; also called H1H27759P-N297Q
B10: H1xH29283P2 (antibody, V domains shown)
VH: QVQLVQSGTEVKKPGSSVKVSCKASGGTFSRYTFSWVRQAPGQGLEWMGGIIPIFGTTNYAQKFQGRVTITTDESTSTVYMELSSLRSEDTAVYYCTRGGRYGWFDPWGQGTLVTVSS
VL: not shown
notes: prefix H1xH not explained for the anti-MSR1 antibodies
B11: H1xH27759P2 (antibody, V domains shown)
VH: B9 VH
VL: not shown
notes: as for B10
B12: H2aM21228N (antibody, mouse IgG2a, V domains shown)
VH: VQLVESGGGLVQPGGSLRLSCAASGFTFSDHYMDWVRQAPGKGLEWVGRTRNKANSHTTEYAASVSGRFTISRDDSKNSLYLQMNSLKTEDTAVYYCTRAGIIGTLFDYWGQGTLVTVSS
VL: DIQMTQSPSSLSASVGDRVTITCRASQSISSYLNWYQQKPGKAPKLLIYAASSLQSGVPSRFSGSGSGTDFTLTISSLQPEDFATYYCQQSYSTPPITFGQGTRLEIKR
notes: mouse IgG2a Fc
B13: H2aM21229N (antibody, mouse IgG2a, V domains shown)
VH: EVQLVESGGGLVKPGGSLRLSCAASGFTFSRYSMNWVRQAPGKGLEWVSSISSSSSYIYYGDTVKGRFTISRDNAKKSLYLQMNSLRAEDTAVYYCVRDRGQLVLYFDYWGQGTLVTVSS
VL: DIQMTQSPASLSTSIRDRVTITCRASLSISSFLNWFQQRPGKAPKLLIYVASNLQSGVPSRFSDSGSGTDFTLTISSLQPEDFATYYCQQNYSTPPITFGQGTRLEIK
notes: mouse IgG2a Fc
B14: H1xH29282P2 (antibody, V domains shown)
VH: EVQLVESGGGLVQPGGSLRLSCAASGFTFSTYAMSWVRQAPGKGLEWVSTISGRSDITYFADSVKGRFTVSRDNSKTTLYLQMNSLRAEDTAVYYCATDDDLPLDYWGQGTLVTVSS
VL: not shown
notes: as for B10
B15: H1H27756P-N297Q (antibody, human IgG1, V domains shown)
VH: QVQLVESGGGVVQPGRSLRLSCAASGFTFSNYDMHWVRQAPGKGLEWMAVISYDGINKYYADSVKGRFTISRDNSKNTLYLQMNSLRAEDTAVYYCAKGTYSWYFDLWGRGTLVTVSS
VL: not shown
notes: human IgG1 Fc with N297Q
B16: H1H27760P2-N297Q (antibody, human IgG1, V domains shown)
VH: EVQLVESGGGLVQPGRSLRLSCAASGFTFDAYAMHWVRQAPGKGLEWVSGISWNSGSIGYADSVKGRFTISRDNAKNSLYLQMNSLREEDTALYYCAKDKILELYYYGMDVWGQGTTVTVSS
VL: not shown
notes: human IgG1 Fc with N297Q; also called H1H27760P-N297Q

Legend:
[1] = molecular target: T1, full length human MSR1 with a C-terminal Myc tag on HEK293.Myc.hMSR1 cells (human, UniProt P21757 1-451); assay: ECL cell binding, HEK293.Myc.hMSR1
T1 construct: whole, on cells
T1 sequence (looked up): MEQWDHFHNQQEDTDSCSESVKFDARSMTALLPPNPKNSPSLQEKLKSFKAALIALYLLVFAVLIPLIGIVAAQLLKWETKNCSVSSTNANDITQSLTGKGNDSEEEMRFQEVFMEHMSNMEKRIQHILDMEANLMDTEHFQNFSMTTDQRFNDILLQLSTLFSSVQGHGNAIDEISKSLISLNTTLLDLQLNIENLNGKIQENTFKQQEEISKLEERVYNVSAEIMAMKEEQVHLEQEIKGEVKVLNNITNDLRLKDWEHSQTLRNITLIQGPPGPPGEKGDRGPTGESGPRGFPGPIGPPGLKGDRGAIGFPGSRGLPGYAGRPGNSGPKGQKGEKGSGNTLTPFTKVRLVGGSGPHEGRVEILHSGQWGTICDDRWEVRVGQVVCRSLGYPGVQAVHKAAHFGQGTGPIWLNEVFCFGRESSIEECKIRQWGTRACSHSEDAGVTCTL
Method: (§1) All cells were washed once with 1×PBS with Ca²⁺/Mg²⁺ and counted with a Cellometer™ Auto T4 cell counter (Nexcelom Bioscience). Approximately 1.0×10⁴ cells were seeded separately onto 96-well carbon electrode plates [MULTI-ARRAY high bind plate, Meso Scale Diagnostics] and incubated for 1 hour at 37° C. Non-specific binding sites were then blocked by 2% BSA (w/v) in PBS with Ca²⁺/Mg²⁺ for 1 hour at room temperature. THP-1 cells were pre-incubated for 0.5 hours at room temperature in sample dilution buffer with: 1) 1 mg/mL Fc receptor block reagents to block Fc gamma receptors on THP-1 cell surface [whole molecule human IgG (Jackson Immunoresearch, Cat #009-000-003) for wells being tested with anti-MSR1-mFc antibodies or 2) whole molecule mIgG (Jackson Immunoresearch, Cat #015-000-003) for wells being tested with anti-MSR1-hFc antibodies. Antibody binding on HEK293.Myc.hMSR1, HEK293.mfMSR1 and HEK293 cells was tested without Fc receptor block reagents. […] Plates were then washed to remove unbound antibodies an AquaMax2000 plate washer with a cell washing head (MDS Analytical Technologies). […] Plates were washed and developed with Read Buffer (Meso Scale Diagnostics, Cat #R92TD-2) according to manufacturer's recommended procedure and luminescent signals were recorded with a SECTOR Imager 600 (Meso Scale Diagnostics). Luminescence intensity, measured in relative light units (RLU), was recorded to indicate the binding intensity of each antibody at the range of concentrations.

[2] = molecular target: T2, full length monkey MSR1 on HEK293.mfMSR1 cells (Macaca fascicularis, UniProt A0A2K5UWE2 1-451); assay: ECL cell binding, HEK293.mfMSR1
T2 construct: whole, on cells
T2 sequence: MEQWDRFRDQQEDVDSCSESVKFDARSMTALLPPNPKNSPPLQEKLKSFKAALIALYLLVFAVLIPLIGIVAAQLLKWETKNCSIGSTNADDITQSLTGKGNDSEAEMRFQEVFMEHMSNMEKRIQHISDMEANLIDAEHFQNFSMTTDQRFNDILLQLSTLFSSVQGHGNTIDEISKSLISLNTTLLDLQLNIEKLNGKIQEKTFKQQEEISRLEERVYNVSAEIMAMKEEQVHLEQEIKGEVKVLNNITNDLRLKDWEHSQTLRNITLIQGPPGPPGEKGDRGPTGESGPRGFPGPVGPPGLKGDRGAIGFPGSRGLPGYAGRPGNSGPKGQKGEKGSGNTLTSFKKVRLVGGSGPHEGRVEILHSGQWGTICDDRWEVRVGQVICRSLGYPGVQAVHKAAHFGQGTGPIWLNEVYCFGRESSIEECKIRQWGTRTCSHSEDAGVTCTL
Method: as §1

[3] = molecular target: T3, mouse MSR1 on RAW264.7 cells (mouse, UniProt P30204 1-458); assay: flow cytometry, RAW264.7 cells, 10 ug/mL;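 further: antibodies bound to RAW264.7 cells for 30 min on ice after Fc block with mouse IgG, S/N is MFI relative to unstained cells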
T3 construct: whole, on cells
T3 sequence (looked up): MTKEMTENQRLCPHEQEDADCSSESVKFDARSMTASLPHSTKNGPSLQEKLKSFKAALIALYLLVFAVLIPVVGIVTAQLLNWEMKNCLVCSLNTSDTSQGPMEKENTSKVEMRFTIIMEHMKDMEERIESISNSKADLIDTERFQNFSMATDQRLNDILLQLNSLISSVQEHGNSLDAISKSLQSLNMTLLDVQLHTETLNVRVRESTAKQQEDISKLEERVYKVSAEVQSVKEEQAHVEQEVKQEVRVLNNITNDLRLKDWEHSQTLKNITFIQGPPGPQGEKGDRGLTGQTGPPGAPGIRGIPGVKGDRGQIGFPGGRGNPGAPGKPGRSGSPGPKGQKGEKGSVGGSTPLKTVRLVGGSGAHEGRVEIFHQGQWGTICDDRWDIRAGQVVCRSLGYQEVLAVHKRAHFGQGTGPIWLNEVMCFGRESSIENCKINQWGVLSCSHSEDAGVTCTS
Method: To block binding to Fc receptors, RAW264.7 cells were incubated for 30 minutes at 4° C. with 500 μg/mL mouse IgG (Jackson ImmunoResearch, Cat #015-000-003) diluted in staining buffer, while B16F10.9 cells remained in staining buffer. Following Fc receptor blocking, 10 μg/mL of anti-MSR1 antibodies or an isotype control antibody were added to the cells and were subsequently incubated for 30 minutes on ice. […] The signal to noise (S/N) was determined by calculating the ratio of the anti-MSR1 antibodies or the control antibodies MFI to the unstained sample MFI (Table 16).

Row | Binder | binding signal ratio to isotype control (11 nM) [1] [fold] | binding signal ratio to isotype control (11 nM) [2] [fold] | MFI [3] | S/N [3]
1 | B1 | 35 | 45 |  | 
2 | B2 | 17 | 6 | 3480 | 1
3 | B3 | 48 | 43 | 3510 | 1
4 | B4 | 40 | 28 | 4780 | 1
5 | B5 | 22 | 20 | 3270 | 1
6 | B6 | 26 | 21 | 3630 | 1
7 | B7 | 63 | 49 | 3820 | 1
8 | B8 | 55 | 53 | 5410 | 1
9 | B9 | 23 | 25 | 3290 | 1
10 | B10 | 26 | 24 |  | 
11 | B11 | 22 | 21 |  | 
12 | B12 | 66 | 60 |  | 
13 | B13 | 78 | 27 |  | 
14 | B14 | 9 | 1 |  | 
15 | B15 |  |  | 4570 | 
16 | B16 |  |  | 3430 | 
